The source of these data is the supplement of paper PMC9112550, “Optimization of the antimicrobial peptide Bac7 by deep mutational scanning” (BMC Biology, 2022).
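Note: peptides expressed intracellularly from a pBAD plasmid library in pooled LB shake-flask culture, induced with 0.3% L-arabinose, DNA abundance read by NGS, three biological replicates, DESeq2 with apeglm shrinkage.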

The test system of the data set is Escherichia coli TOP10. The experiment in a line: shrunken log2 fold change of peptide-encoding DNA abundance (4.5 h post-induction vs induction); higher = less antimicrobial activity (less host growth inhibition). The settings on record: time post-induction: 4.5 h; library: site-saturation at positions 5, 18, 19, 20.
RRIRARPPRLPRPRPRPTKSPRP: the “shrunken log2 fold change” value was 0.032.
As for RRIRMRPPRLPRPRPRPKQAPRP, the figure is 3.56; as for RRIRTRPPRLPRPRPRPHNRPRP, -0.0489; as for RRIRARPPRLPRPRPRPWMCPRP, -0.12.
The figure for RRIRGRPPRLPRPRPRPWVMPRP is 0.0476; for RRIRNRPPRLPRPRPRPERDPRP it is 0.157.
The figure for RRIRFRPPRLPRPRPRPDHNPRP is -0.911.
With RRIRSRPPRLPRPRPRPSRNPRP, the “shrunken log2 fold change” value is -0.129.
As for RRIRFRPPRLPRPRPRPCQDPRP, the figure is -0.148; as for RRIRGRPPRLPRPRPRPIEAPRP, 0.377.
For RRIRWRPPRLPRPRPRPPAQPRP, the “shrunken log2 fold change” value worked out at 0.54.
With RRIRDRPPRLPRPRPRPLCNPRP, the “shrunken log2 fold change” value was -0.00406.
As for RRIRPRPPRLPRPRPRPARPPRP, the figure is 0.626.
As for RRIRCRPPRLPRPRPRPNWPPRP, the “shrunken log2 fold change” value was 0.0717.
As for RRIRGRPPRLPRPRPRPTHYPRP, the figure is 0.525; as for RRIRFRPPRLPRPRPRPEVSPRP, -0.149; as for RRIRLRPPRLPRPRPRPGTDPRP, -0.151.
As for RRIRIRPPRLPRPRPRPHCVPRP, the figure is -0.533; as for RRIRRRPPRLPRPRPRPCFEPRP, 0.0864; as for RRIRWRPPRLPRPRPRPKARPRP, 0.836.
The figure for RRIRQRPPRLPRPRPRPEATPRP is 0.353; for RRIRCRPPRLPRPRPRPHFPPRP it is -0.0893.
RRIRTRPPRLPRPRPRPTHYPRP: the “shrunken log2 fold change” value was determined as 0.282.
The figure for RRIRWRPPRLPRPRPRPHENPRP is 0.0568.
The figure for RRIRNRPPRLPRPRPRPAVRPRP is 0.2.
For RRIRMRPPRLPRPRPRPRVSPRP, the “shrunken log2 fold change” value is 0.0315.
As to RRIRIRPPRLPRPRPRPMSCPRP, the “shrunken log2 fold change” value was -0.141.
Regarding RRIRERPPRLPRPRPRPAQCPRP, the “shrunken log2 fold change” value is -0.0401.
As for RRIRWRPPRLPRPRPRPNTHPRP, the figure is -0.231; as for RRIRFRPPRLPRPRPRPGECPRP, -0.228; as for RRIRERPPRLPRPRPRPWADPRP, -0.00088.
RRIRVRPPRLPRPRPRPGVVPRP: the “shrunken log2 fold change” value came to 0.43.
Take RRIRERPPRLPRPRPRPKYQPRP: the “shrunken log2 fold change” value is -0.601.
On to RRIRTRPPRLPRPRPRPCMHPRP, for which the “shrunken log2 fold change” value was -0.0639.
The figure for RRIRRRPPRLPRPRPRPSHSPRP is -0.00512; for RRIRPRPPRLPRPRPRPFTVPRP it is 0.0237; for RRIRFRPPRLPRPRPRPAYNPRP it is -0.486.
As for RRIRNRPPRLPRPRPRPLFQPRP, the figure is -0.421; as for RRIRWRPPRLPRPRPRPLRVPRP, 0.874; as for RRIRSRPPRLPRPRPRPSIHPRP, -0.479.
RRIRLRPPRLPRPRPRPWLSPRP: the “shrunken log2 fold change” value is -0.0106.
With RRIRLRPPRLPRPRPRPRWDPRP, the “shrunken log2 fold change” value was determined as 0.141.
In the case of RRIRSRPPRLPRPRPRPKSSPRP, the “shrunken log2 fold change” value is -0.176.
The figure for RRIRCRPPRLPRPRPRPGLWPRP is 0.569; for RRIRARPPRLPRPRPRPQPPPRP it is 0.715; for RRIRGRPPRLPRPRPRPWWVPRP it is 0.0839.
As for RRIRERPPRLPRPRPRPASTPRP, the figure is -0.527; as for RRIRTRPPRLPRPRPRPHQYPRP, -0.259; as for RRIRKRPPRLPRPRPRPDHYPRP, -0.0322.
In the case of RRIRTRPPRLPRPRPRPENIPRP, the “shrunken log2 fold change” value is -0.0809.
As for RRIRFRPPRLPRPRPRPLQFPRP, the “shrunken log2 fold change” value worked out at 0.0763.
The figure for RRIRRRPPRLPRPRPRPKLWPRP is 0.701; for RRIRCRPPRLPRPRPRPQAKPRP it is 0.31; for RRIRMRPPRLPRPRPRPIWTPRP it is 0.12.
For the sequence RRIRRRPPRLPRPRPRPVQMPRP, the “shrunken log2 fold change” value was determined as 0.158.
As for RRIRSRPPRLPRPRPRPVARPRP, the figure is 0.148; as for RRIRHRPPRLPRPRPRPSMRPRP, 0.204; as for RRIRYRPPRLPRPRPRPGVVPRP, -0.354.
As for RRIRKRPPRLPRPRPRPTHSPRP, the figure is 0.168.
With RRIRTRPPRLPRPRPRPVTVPRP, the “shrunken log2 fold change” value worked out at 0.0698.
The figure for RRIRGRPPRLPRPRPRPQMLPRP is -0.0638; for RRIRKRPPRLPRPRPRPFSIPRP it is -0.0639.
In the case of RRIRWRPPRLPRPRPRPSRTPRP, the “shrunken log2 fold change” value came to 0.188.
As for RRIRWRPPRLPRPRPRPIRTPRP, the figure is -0.228.
The figure for RRIRFRPPRLPRPRPRPGINPRP is -0.288; for RRIRRRPPRLPRPRPRPEIKPRP it is 0.27; for RRIRFRPPRLPRPRPRPPGAPRP it is 0.847.
As for RRIRQRPPRLPRPRPRPVSHPRP, the figure is -0.0425.
On to RRIRGRPPRLPRPRPRPLKDPRP, for which the “shrunken log2 fold change” value was 0.125.
As for RRIRFRPPRLPRPRPRPEPCPRP, the “shrunken log2 fold change” value is -0.111.
Consider RRIRLRPPRLPRPRPRPFNGPRP, for which the “shrunken log2 fold change” value is -0.0434.
As for RRIRIRPPRLPRPRPRPYSRPRP, the “shrunken log2 fold change” value is -0.0136.
As for RRIRLRPPRLPRPRPRPSYNPRP, the figure is -0.588; as for RRIRDRPPRLPRPRPRPHVQPRP, -0.0912.
The figure for RRIRYRPPRLPRPRPRPEHYPRP is -0.126; for RRIRHRPPRLPRPRPRPGILPRP it is -0.111.
With RRIRARPPRLPRPRPRPENQPRP, the “shrunken log2 fold change” value was determined as 0.153.
As for RRIRKRPPRLPRPRPRPDDYPRP, the “shrunken log2 fold change” value worked out at 0.276.
RRIRTRPPRLPRPRPRPTGKPRP: the “shrunken log2 fold change” value was -0.108.
The figure for RRIRARPPRLPRPRPRPCRHPRP is -0.355; for RRIRIRPPRLPRPRPRPCLVPRP it is -0.687.
The figure for RRIRDRPPRLPRPRPRPPPIPRP is 0.45; for RRIRSRPPRLPRPRPRPQNTPRP it is -0.522; for RRIRYRPPRLPRPRPRPFHYPRP it is -0.21.
As for RRIRQRPPRLPRPRPRPEKIPRP, the figure is 2.55; as for RRIRIRPPRLPRPRPRPAVGPRP, 0.455; as for RRIRDRPPRLPRPRPRPFKVPRP, -0.0463.
As for RRIRPRPPRLPRPRPRPIVHPRP, the “shrunken log2 fold change” value was -0.155.
As for RRIRQRPPRLPRPRPRPVVPPRP, the figure is -0.0392; as for RRIRYRPPRLPRPRPRPKKYPRP, -0.86.
As for RRIRVRPPRLPRPRPRPTFYPRP, the figure is -0.145.
As for RRIRIRPPRLPRPRPRPYIYPRP, the figure is -0.176.
As for RRIRIRPPRLPRPRPRPESVPRP, the “shrunken log2 fold change” value was -0.00682.
As for RRIRKRPPRLPRPRPRPAYDPRP, the figure is -0.116; as for RRIRTRPPRLPRPRPRPSELPRP, -0.255; as for RRIRQRPPRLPRPRPRPVEIPRP, -0.0298.
The figure for RRIRTRPPRLPRPRPRPILEPRP is -0.0122; for RRIRRRPPRLPRPRPRPSICPRP it is 0.00217; for RRIRYRPPRLPRPRPRPSRHPRP it is -0.649.
As for RRIRQRPPRLPRPRPRPAAFPRP, the figure is 0.39; as for RRIRNRPPRLPRPRPRPFCFPRP, 0.567.
On to RRIRIRPPRLPRPRPRPSPPPRP, for which the “shrunken log2 fold change” value is -0.214.
As for RRIRGRPPRLPRPRPRPKDKPRP, the figure is 0.558; as for RRIRGRPPRLPRPRPRPKYLPRP, 0.32.
As for RRIRCRPPRLPRPRPRPGSGPRP, the figure is 0.496; as for RRIRWRPPRLPRPRPRPEMDPRP, 0.7; as for RRIRRRPPRLPRPRPRPTIKPRP, -0.0992.
The figure for RRIRQRPPRLPRPRPRPDCSPRP is 0.0489; for RRIRRRPPRLPRPRPRPWCPPRP it is -0.0442.
In the case of RRIRNRPPRLPRPRPRPRCCPRP, the “shrunken log2 fold change” value was -0.247.
Consider RRIRIRPPRLPRPRPRPVKCPRP, for which the “shrunken log2 fold change” value was 0.101.
As for RRIRVRPPRLPRPRPRPKEAPRP, the figure is -0.0421.
The figure for RRIRIRPPRLPRPRPRPVENPRP is -0.0976.
The figure for RRIRLRPPRLPRPRPRPQVWPRP is 0.000105.
Take RRIRKRPPRLPRPRPRPGPHPRP: the “shrunken log2 fold change” value stood at 0.803.
The figure for RRIRPRPPRLPRPRPRPKEIPRP is -0.0621; for RRIRPRPPRLPRPRPRPSARPRP it is 0.186.
Consider RRIRERPPRLPRPRPRPLKEPRP, for which the “shrunken log2 fold change” value was -0.0885.
The figure for RRIRQRPPRLPRPRPRPENLPRP is -0.0164; for RRIRPRPPRLPRPRPRPCWMPRP it is -0.126.
As for RRIRERPPRLPRPRPRPYQCPRP, the figure is -0.00884; as for RRIRGRPPRLPRPRPRPLGEPRP, 1.08; as for RRIRYRPPRLPRPRPRPHFGPRP, 0.0439.
Consider RRIRSRPPRLPRPRPRPKKYPRP, for which the “shrunken log2 fold change” value is -0.3.
Regarding RRIRLRPPRLPRPRPRPSWSPRP, the “shrunken log2 fold change” value was 0.0192.
